# ± gives the uncertainty stated by the source.
# Experiment: amyloid nucleation score (Sup35N fusion, yeast selection) (log enrichment); library NNK3; higher = more nucleation; inactive = no reads after selection
# Method in brief: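 The nucleation score is a DiMSum log enrichment of output over input reads, centred on the mode score of non-aggregating sequences. Sequences under 100 input reads were excluded, and reads came from Illumina sequencing of plasmid inserts. Psi-negative yeast expressing Sup35N fused to peptides of 20 random codons were induced with 100 μM copper sulfate for 24 hours and grown 7 days at 30°C on medium lacking adenine and uracil. Random libraries had three technical output replicates.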
row,Substance,amyloid nucleation score
1,LWYWVELLCCTGGSRA,2.02 ± 0.086
2,LYAFICTTYTCVVN,inactive
3,LYCRLCVSIFM,-0.02 ± 1.1
4,LYDCSINKQG,inactive
5,LYDDHFYDWQGYVRRRILDS,inactive
6,LYDLNLSDLMNCRYTIRGWF,inactive
7,LYEGD,inactive
8,LYETSRSFPH,inactive
9,LYFILLAHLFSCNNPVSKDP,1.4 ± 0.13
10,LYGIFHRYTNFCSSVLCQVF,1.66 ± 0.12
11,LYGLLSCSERVVKLWFWSWV,inactive
12,LYHPGALVHQQIDS,inactive
13,LYHTLKTHVKIFPCHSTDAP,inactive
14,LYIIFERD,inactive
15,LYKGYYVLMLEWARDKIHSA,inactive
16,LYLVMSYV,inactive
17,LYLYYSSTVSLVKYSNEVNC,inactive
18,LYMRLIGIRRAMHIYPPLKS,inactive
19,LYPMGFQ,inactive
20,LYSPYLGCDNGATQFWSGTT,0.226 ± 0.88
21,LYSSLCRGWLCRISISTRAP,inactive
22,LYVLSGVGICIRGDRLSC,0.535 ± 0.36
23,LYVVWYSHPWTEYFACSLVA,inactive
24,LYVWLAWYWVYPINHALVVC,inactive

row,Substance,amyloid nucleation score
1,LYYSWKKEYQFIWVVHTFAK,inactive
2,MAAFVCSFEFSLGSTCSMGG,inactive
3,MAIFKLFVPFIFLIEFCYMV,inactive
4,MAPPNIWFQCQ,inactive
5,MAWGLVNMRMSLSAKYQGAL,inactive
6,MCAHVNVMRNSFYRRNAPNY,0.603 ± 0.16
7,MCEMVFTWDSWLLRRIRQDW,1.5 ± 0.087
8,MCFKTEYSRSPGYIAN,inactive
9,MCGCARLFVSLSATAKTNP,-0.003 ± 1.1
10,MCGLVTFWRALRGNRGRY,inactive
11,MCGQE,inactive
12,MCRLDA,2.38 ± 0.073
13,MCRMLFISGIQNCDPDVIMH,1.15 ± 0.12
14,MCSETWIYALSICDNLCRD,1.29 ± 0.16
15,MCSRCVAKLATTPRLGFNDS,inactive
16,MDGPGVTFCPEVLDKWDGSI,-0.205 ± 1.4
17,MEFHYWTGVCQVSK,inactive
18,MEYWYYDMD,inactive
19,MFCMYTRDREIYLVETLLYV,inactive
20,MFKNILCVHVLTSAGT,inactive
21,MFLFKVTDTE,1.88 ± 0.098
22,MFQFVFSVQMSGSAFRMFMK,inactive
23,MFRDIWLFGPISWIYECCRS,2.36 ± 0.091
24,MFSCWYIISWCIEVHDGVKI,inactive

row,Substance,amyloid nucleation score
1,MGGVCMSMS,inactive
2,MGNLVNSNVGSTLSKKIRND,0.351 ± 0.35
3,MGQRLLLVSANAWD,inactive
4,MGTVVTMSMRLSNSVWGVGH,1.28 ± 0.14
5,MGVVNFVITGNSYCAKVMLY,inactive
6,MGYCLGNDGSIKALFLVVNV,inactive
7,MHSTVVEHLLWLTFTPGYKL,inactive
8,MICSLTSHRKRN,inactive
9,MIFNHMNKL,inactive
10,MIFNVDGLDLVPDKVRYYRD,inactive
11,MIGNITMGLMSLDSGKRSVN,inactive
12,MIIAFFCDYNGVEG,inactive
13,MILILY,inactive
14,MIMYIGVCVSVGLFEDYAYR,0.044 ± 0.49
15,MINSCFK,inactive
16,MINWHSRMSSEG,inactive
17,MITLDCLNNNI,inactive
18,MIVNNELCTNLPYLSGAVNR,inactive
19,MKLDICWLRLSRCYVVVVWV,inactive
20,MKLINRDFSL,inactive
21,MKVLYDKVKSVTASIELWFW,inactive
22,MLCLWFNEFHDVCPT,inactive
23,MLCTTLRNYMTSSICFIRYQ,inactive
24,MLHFG,inactive

row,Substance,amyloid nucleation score
1,MLSSCRVFRLFCFNCVTLNR,0.816 ± 0.16
2,MLSYYRFWCPVGRVVMMSFW,inactive
3,MLWYLESWLTLHGTVECNVW,inactive
4,MMFVGYLSCFSS,2.38 ± 0.059
5,MMGIGVACYVKCGFFVYNWG,inactive
6,MMNILILCVKGMHFGRHKYV,inactive
7,MMNVWLAFAPGML,0.9 ± 0.14
8,MMRSVHFFRCRQTHENLLMC,-0.207 ± 0.66
9,MMTCF,inactive
10,MNNCTDLYLLVNPRIRFGVM,inactive
11,MNSVHYNDHPHDAVKFTISI,inactive
12,MNVFVAQSLRRVHCAHELN,0.233 ± 0.81
13,MNYWHNYFSLYDHLLMSKCC,inactive
14,MPCLYALLYG,inactive
15,MPSLRRS,inactive
16,MPWMVATSNM,inactive
17,MQAQRKYMSMRNRYQVAKVE,inactive
18,MQICSCYRFSD,2.45 ± 0.071
19,MQSAAM,inactive
20,MRCQNSCRHS,inactive
21,MRRYIRNIKAHMCVIVRVYL,inactive
22,MRSLGSAMWR,inactive
23,MRSYFEDFCGFQAIRS,1.07 ± 0.14
24,MRTINIS,inactive

row,Substance,amyloid nucleation score
1,MRVLGLGEAWDDNGLRRLRA,inactive
2,MRWMGDGMRSTNSSVNSHGL,inactive
3,MSAGCLLNL,inactive
4,MSCLG,inactive
5,MSFRIAKDIMCLVGFSLRCT,inactive
6,MSFSPQKVVAHFCYWSCMRS,inactive
7,MSHCYYEFARVPKWHERCPS,inactive
8,MSILMMSL,inactive
9,MSIVIYARLTWNYDSVFSFG,inactive
10,MSIYLQSTM,inactive
11,MSKDFSRGVQLTDRCLLC,inactive
12,MSKHRMFLSGRLFRANEVRP,inactive
13,MSLRSSRHTPVDSQISSMEM,inactive
14,MSMLKFIYFDYSMDSLHIIW,inactive
15,MSPFADKRHLADILCVHGS,inactive
16,MSQCFVCRFAFLIN,1.57 ± 0.067
17,MSQKEGFSDTGLLLRRSTRS,inactive
18,MSSISIKGKIYDWMFRFCCR,inactive
19,MSTMVYRASRCGRLG,0.399 ± 0.53
20,MSVIIAIAMYRLFRDRTHPL,inactive
21,MTGCHCSSVAR,-0.299 ± 0.68
22,MTLFDWFFLEIKAGWFRMVV,inactive
23,MTMQKSSIFFLHEAKLNFSA,inactive
24,MTPFIKNS,inactive

# — the supplement of paper PMC12042874
